Source: US20260008815A1, “CYCLIC PEPTIDE OR SALT THEREOF, AND USES THEREOF” (FUJIFILM Corporation, priority 2023, published 2026)
Numbered stars: 1 amine (or outer) side, 2 acyl side, 3 side chain; on linkers, the order of the positions; unused ones are H or OH. Bridge positions count the residues as written; N and C are the ends. Ends that are not written are not given here. acetyl = acetyl (haloacetyl before ring closure) on the side-chain amine, O=C(C[*:1])[*:2]; COCH2 = acetyl group that carries the bridge

The substances below were run against T1, Recombinant Human FGFR2 alpha (IIIc) Fc Chimera Protein (Homo sapiens, UniProt P21802) (assay: ELISA binding affinity of enzymatically synthesized peptide to FGFR). Settings: ELISA luminescence signal at 10 nmol/L peptide, SEQ ID NO: 47 at 10 nmol/L standardized to 1; enzyme synthesis product.
T1 construct: Fc (chimera); purchased R&D systems 712-FR-050
Experimental: The binding affinity of the peptide to FGFR was evaluated using an ELISA method.
The binding affinity of the enzymatically synthesized peptide to FGFR was measured by evaluating the amount of the peptide bound to FGFR by ELISA.
First, 5 ng of Recombinant Human FGFR2 alpha (IIIc) Fc Chimera Protein (R&D systems, 712-FR-050) was immobilized in each well of a 96-well plate, and blocked with Pierce Protein-Free (PBS) Blocking Buffer (Thermo, 37572), and a peptide diluted with Can Get Signal Immunoreaction Enhancer Solution I (TOYOBO, NKB-101) was then added and reacted at room temperature for 3 hours. After washing with 0.05% Tween 20-containing phosphate buffered saline (PBS), an anti-Myc antibody (Cell Signaling, 14038S) diluted with Can Get Signal Immunoreaction Enhancer Solution II (TOYOBO, NKB-101) was added and reacted at room temperature for 2 hours. After washing with 0.05% Tween 20-containing PBS, SuperSignal ELISA Femto Substrate (Thermo, 37075) was added, and the luminescence amount was measured. The dose-response relationship was calculated from using the difference between the luminescence amount in the well in which FGFR was immobilized and the luminescence amount in the well in which FGFR was not immobilized, and the concentration of the peptide at the time of reaction, and the binding affinity to FGFR was evaluated according to the following evaluation criteria. The evaluation result preferably satisfies the evaluation criteria A, B, or C.
In a case where a value of a luminescence signal emitted by the cyclic peptide set forth in SEQ ID NO: 47 at a reaction concentration of 10 nmol/L is standardized to 1, evaluation criteria of the luminescence signal value emitted by the cyclic peptide at a reaction concentration of 10 nmol/L is as follows. • A: 0.7 or more • B: 0.5 or more and less than 0.7 • C: 0.1 or more and less than 0.5 • D: less than 0.1.

T1 sequence (P21802 with tags, fused parts or gaps limits assumed): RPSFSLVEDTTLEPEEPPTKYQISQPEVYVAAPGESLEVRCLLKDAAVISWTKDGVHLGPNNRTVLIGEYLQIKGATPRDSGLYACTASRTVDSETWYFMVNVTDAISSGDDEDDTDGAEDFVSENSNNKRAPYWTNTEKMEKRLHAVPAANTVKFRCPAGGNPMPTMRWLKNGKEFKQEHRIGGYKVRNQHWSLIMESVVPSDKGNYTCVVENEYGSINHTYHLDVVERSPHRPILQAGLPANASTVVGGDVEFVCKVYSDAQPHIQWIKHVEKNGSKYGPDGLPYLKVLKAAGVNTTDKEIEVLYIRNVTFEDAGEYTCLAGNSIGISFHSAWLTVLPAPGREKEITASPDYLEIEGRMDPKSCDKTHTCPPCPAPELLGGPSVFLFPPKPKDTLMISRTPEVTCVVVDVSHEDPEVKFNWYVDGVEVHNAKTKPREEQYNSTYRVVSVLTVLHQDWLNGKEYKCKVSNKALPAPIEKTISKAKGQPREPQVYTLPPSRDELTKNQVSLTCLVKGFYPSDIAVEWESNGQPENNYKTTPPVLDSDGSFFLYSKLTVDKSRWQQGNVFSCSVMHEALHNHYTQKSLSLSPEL

Evaluation result of binding affinity to FGFR | Substance
A (0.7 or more) | 263 (YCEENYLDPEQYWYFIYFK(COCH2)Y; thioether 2-19) [compound 263]
A (0.7 or more) | 108 (LCRNYINPQQWRYFALYK(COCH2)Y; thioether 2-18 (inferred)) [compound 108]
A (0.7 or more) | 169 (YCEINYLDPEQYQYFIYFK(COCH2)Y; thioether 2-19 (inferred)) [compound 169]
A (0.7 or more) | 262 (YCEENYLDPEQYYYFIYFK(COCH2)Y; thioether 2-19) [compound 262]
B (0.5 or more and less than 0.7) | 103 (QCPQNFINPVQFRYFQHYK(COCH2)N; thioether 2-19 (inferred)) [compound 103]
C (0.1 or more and less than 0.5) | 116 (QCYQNWYLYQYLVERYYK(COCH2)D; thioether 2-18 (inferred)) [compound 116]
C (0.1 or more and less than 0.5) | 105 (QCPQNFINPVQSRYFQHYK(COCH2)N; thioether 2-19 (inferred)) [compound 105]
A (0.7 or more) | 133 (ECLGNYFSHEQYQYLLQYK(COCH2)I; thioether 2-19 (inferred)) [compound 133]
A (0.7 or more) | 337 (YCEKNYLDPEQYQYFIYFK(COCH2)Y; thioether 2-19 (inferred)) [compound 337]
A (0.7 or more) | 145 (SCEENYLDPEQYQYFIYFKY; Description of Artificial Sequence: Cyclic peptide) [compound 145]
A (0.7 or more) | 246 (YCEENYLDPSQYQYFIYFK(COCH2)Y; thioether 2-19 (inferred)) [compound 246]
A (0.7 or more) | 232 (YCEENYLDDEQYQYFIYFK(COCH2)Y; thioether 2-19 (inferred)) [compound 232]
A (0.7 or more) | 216 (YCEENYLSPEQYQYFIYFK(COCH2)Y; thioether 2-19 (inferred)) [compound 216]
A (0.7 or more) | 137 (PCEENYLDPEQYQYFIYFK(COCH2)Y; thioether 2-19 (inferred)) [compound 137]
A (0.7 or more) | 197 (YCEENYFDPEQYQYFIYFK(COCH2)Y; thioether 2-19 (inferred)) [compound 197]
B (0.5 or more and less than 0.7) | 403 (ACRRANWIHPIQWFFFHVYK(COCH2)H; thioether 2-20 (inferred)) [compound 403]
A (0.7 or more) | 152 (YCPENYLDPEQYQYFIYFK(COCH2)Y; thioether 2-19 (inferred)) [compound 152]
A (0.7 or more) | 179 (YCERNYLDPEQYQYFIYFK(COCH2)Y; thioether 2-19 (inferred)) [compound 179]
A (0.7 or more) | 318 (YCEENYLDPEQYQYFIYFK(COCH2)D; thioether 2-19 (inferred)) [compound 318]
A (0.7 or more) | 299 (YCEENYLDPEQYQYFIQFK(COCH2)Y; thioether 2-19) [compound 299]
C (0.1 or more and less than 0.5) | 112 (HCQPEYELYYIYLYLNALK(COCH2)I; thioether 2-19 (inferred)) [compound 112]
C (0.1 or more and less than 0.5) | 408 (HCSQHQTTYYQIYAYLHAIK(COCH2)I; thioether 2-20 (inferred)) [compound 408]
A (0.7 or more) | 227 (YCEENYLDWEQYQYFIYFK(COCH2)Y; thioether 2-19 (inferred)) [compound 227]
A (0.7 or more) | 225 (YCEENYLDFEQYQYFIYFK(COCH2)Y; thioether 2-19 (inferred)) [compound 225]
A (0.7 or more) | 335 (KCEENYLDPEQYQYFIYFK(COCH2)Y; thioether 2-19 (inferred)) [compound 335]
A (0.7 or more) | 41 (LCGNYITPLQWKYFQTYK(COCH2)W; thioether 2-18 (inferred)) [compound 41]

Evaluation result of binding affinity to FGFR | Substance
C (0.1 or more and less than 0.5) | 251 (YCEENYLDPEHYQYFIYFK(COCH2)Y; thioether 2-19 (inferred)) [compound 251]
C (0.1 or more and less than 0.5) | 185 (YCEETYLDPEQYQYFIYFK(COCH2)Y; thioether 2-19 (inferred)) [compound 185]
C (0.1 or more and less than 0.5) | 134 (LCADQYDYLLQYVFWRTYK(COCH2)I; thioether 2-19 (inferred)) [compound 134]
A (0.7 or more) | 233 (YCEENYLDEEQYQYFIYFK(COCH2)Y; thioether 2-19 (inferred)) [compound 233]
C (0.1 or more and less than 0.5) | 364 (QCLQYLYQYLFK(COCH2)I; thioether 2-12) [compound 364]
C (0.1 or more and less than 0.5) | 219 (YCEENYLRPEQYQYFIYFK(COCH2)Y; thioether 2-19 (inferred)) [compound 219]
A (0.7 or more) | 168 (YCELNYLDPEQYQYFIYFK(COCH2)Y; thioether 2-19 (inferred)) [compound 168]
A (0.7 or more) | 49 (SCQGNWISNTQFRYFIAYK(COCH2)T; thioether 2-19; not fully specified (residue 1); printed as s-(C)-QGNWISNTQFRYFIAY-(K(acetyl))-T) [compound 49]
A (0.7 or more) | 328 (YCEENYLAPEQYQYFIYFK(COCH2)Y; thioether 2-19 (inferred)) [compound 328]
A (0.7 or more) | 199 (YCEENYWDPEQYQYFIYFK(COCH2)Y; thioether 2-19 (inferred)) [compound 199]
C (0.1 or more and less than 0.5) | 425 (GCGYTQLHYQHLFAWLHARK(COCH2)V; thioether 2-20 via acetyl) [compound 425]
A (0.7 or more) | 151 (YCGENYLDPEQYQYFIYFK(COCH2)Y; thioether 2-19 (inferred)) [compound 151]
A (0.7 or more) | 142 (WCEENYLDPEQYQYFIYFKY; Description of Artificial Sequence: Cyclic peptide) [compound 142]
C (0.1 or more and less than 0.5) | 424 (VCTQPQQDFELIYQYLYQLAK(COCH2)Q; thioether 2-21 via acetyl) [compound 424]
A (0.7 or more) | 221 (YCEENYLDGEQYQYFIYFK(COCH2)Y; thioether 2-19 (inferred)) [compound 221]
A (0.7 or more) | 205 (YCEENYRDPEQYQYFIYFK(COCH2)Y; thioether 2-19 (inferred)) [compound 205]
A (0.7 or more) | 248 (YCEENYLDPDQYQYFIYFK(COCH2)Y; thioether 2-19 (inferred)) [compound 248]
A (0.7 or more) | 241 (YCEENYLDPFQYQYFIYFK(COCH2)Y; thioether 2-19 (inferred)) [compound 241]
A (0.7 or more) | 86 (HCPQNFINPVQWRYFQHYK(COCH2)N; thioether 2-19 (inferred)) [compound 86]
C (0.1 or more and less than 0.5) | 377 (HCLHYLYQYLYTVK(COCH2)Y; thioether 2-14 (inferred)) [compound 377]
C (0.1 or more and less than 0.5) | 376 (QCIQDLYLYLYFLK(COCH2)T; thioether 2-14 (inferred)) [compound 376]
A (0.7 or more) | 238 (YCEENYLDPLQYQYFIYFK(COCH2)Y; thioether 2-19 (inferred)) [compound 238]
B (0.5 or more and less than 0.7) | 64 (KCPQNFINPVQWRAFQHYK(COCH2)N; thioether 2-19 (inferred)) [compound 64]
B (0.5 or more and less than 0.7) | 58 (KCPQNFANPVQWRYFQHYK(COCH2)N; thioether 2-19 (inferred)) [compound 58]
A (0.7 or more) | 207 (YCEENYLGPEQYQYFIYFK(COCH2)Y; thioether 2-19 (inferred)) [compound 207]
